Results published in patent US20240109963A1.

Tests used:
[1] = target: Claudin 18.1 on CHO cells (CHO+ Claudin 18.1) (UniProt P56856); test: flow cytometry, unpurified culture supernatant on CHO_18.1 cells, anti-c-Myc 9E10 + Avidin-PE; parental CHO in the same table: 1.25 %
[2] = target: Claudin 18.1 on CHO cells (CHO+ Claudin 18.1) (UniProt P56856); test: flow cytometry, unpurified culture supernatant on CHO_18.1 cells, anti-c-Myc 9E10 + Avidin-PE; parental CHO in the same table: 1.71 %

Claudin 18.1 on CHO cells (CHO+ Claudin 18.1), sequence (P56856 whole entry): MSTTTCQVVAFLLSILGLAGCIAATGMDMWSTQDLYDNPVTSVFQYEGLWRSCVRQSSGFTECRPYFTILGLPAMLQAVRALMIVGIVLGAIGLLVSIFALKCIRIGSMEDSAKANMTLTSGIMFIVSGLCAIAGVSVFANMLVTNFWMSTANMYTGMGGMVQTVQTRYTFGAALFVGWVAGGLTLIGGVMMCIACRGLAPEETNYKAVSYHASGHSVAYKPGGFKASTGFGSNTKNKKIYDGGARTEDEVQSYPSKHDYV

Binder | PE-Positive Cells (%) [1] | PE-Positive Cells (%) [2]
Claudin 18.2-4G1 (VHH) VHH: QVQLVESGGGVVQTGGSLRLTCEISGAALSSYTMGWFRQAPGKEREFVAAISWGGSITWYADSVKGRFTISRDNAKNTVYLQMNSLKPEDTAVYYCHAEGQFGALSYPKDYWGQGTQVTVSS | 6.79% | –
Claudin 18.2-3C2 (VHH) VHH: QVQLVESGGGLVQPGGSLRLSCAASGFTFSNYAMYWVRQAPGKGPEWVSVISGGGGVISYADSVKGRFTISRDNAKNTMYLQMNSLKPEDTAVYYCNAQSAVWWENDYWGQGTQVTVSS | – | 7.32%
